Results: PMC3286859

How the values were obtained:
[1] = test system: Cc1cc(=O)oc2cc(NC(=O)[C@H](CCCNC(=N)N)NC(=O)[C@H](Cc3ccccc3)NC(=O)OCc3ccccc3)ccc12; experiment: purified protein; conditions: 100 mM sodium acetate pH 5.0, 1 mM EDTA, 2 mM DTT, no crammer added
[2] = target: recombinant Drosophila cathepsin B (Drosophila); experiment: enzyme inhibition assay
[3] = target: Drosophila cathepsin L purified from fly head extracts (Drosophila melanogaster (endogenous in fly heads)); experiment: enzyme inhibition assay

Row | Substance | Ki [2] | Ki [3] | Km [1]
1 | Drosophila cathepsin L (Drosophila melanogaster) |  |  | 3.85 µM
2 | crammer Y12A (natural protein) | 18900 nM |  | 
3 | crammer Y20A (natural protein) | 5400 nM |  | 

Second part, led by results:

Row | Ki [2] | Ki [3] | Substance | Km [1]
4 | 790 nM | 1.36 nM | Drosophila melanogaster crammer, recombinant wild type (monomer) (natural protein) | 
5 | 1870 nM |  | crammer C72S (natural protein) | 
6 | 2260 nM |  | crammer F16A (natural protein) | 
